Laboratory results taken from the supplement of paper PMC9942255.
“And” between values parts separate entries of the source, which are not always exact repeats. Identical values can stand only once.

Test system: Bacillus subtilis DB104 (SP-AmyQ fusion secretion)
Test: AmyQ secretion efficiency, weighted average sort bin (1 = best secretion, 10 = worst) (bin number (weighted average, 1-10)); higher = lower secretion efficiency
Outline: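 A B. subtilis DB104 library carrying amyE-integrated fusions of designed signal peptides to mature AmyQ was encapsulated at about 0.3 cells per ~65 nL alginate bead with fluorescein-starch and grown about 13 h at room temperature. Following nile red staining, occupied beads were flow-sorted as large particles into 10 equally populated bins by green/red fluorescence ratio, and the bin amplicons were Illumina-sequenced. The secretion score is the read-frequency-weighted average bin number normalised to beads per bin, leaving out low-abundance sequences.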

Sequence | AmyQ secretion efficiency
MKKKQVSHAIIISVMLSFVIAVFHTIHKSELTP | 4.63
MKRKKLCVMMLLFSAIASFPVSAQAKDQ | 2.65
MFNRLFRVCFLAALIMAFTLPNSAYAQKP | 2.14
MKSKGSIMACLILFSFTITRKKRKKTISAFSN | 7.38
MKRLLVSLRVWMVFLMNWVTPDRKTDAAAVY | 6.85
MKRFSTAYLLLGILCSAAVFLIGAPSRALGKKK | 7.04
MTMLRKIIGWILLLCIIPSKQQSSIASGKEV | 6.84
MRKAVFVIMISFLIATVNVNTAHAAID | 3.36
MKLSVKIAGVLTVAAAAMTAKMYATNKGN | 6.32
MPIKKKVMMCSKVTLVFGSMSFPTLTNSGGFKE | 7.22
MKKRKRRNFKRFIAAFLVLALMISLVPDVLAKST | 3.69
MKVPKTMLLSTAAGLLLSLTATSFSAHYV | 6.3
MKLKKRVSMFLVALTMCGGLFVRRAKAVKT | 7.34
MLKKIALILCIAIVFFLLFFSAPASAHVS | 3.76
MLKKTILAAFILVGSTLGAFSFSSDASAKHV | 2.16
MRKNRILALFVLSLGLLSFMVTPVSRASK | 8.98
MKNMSCKLVVSVTLFFSFLTIGPLAHNQNS | 5.52
MKKSQYFIVFICFFVLFSVHPIAAACADS | 4.69
MIAYFGKCLLLVTIMFLGVLFGMQQANHG | 6.54 and 6.99 and 8.58
MRHKIITFILAVVVIIIIGNMIGGGGGSEETSK | 7.2
MKKWMITIAMSTYTYYTLFVFISPLKSHKT | 5.78
MKSKWMSGLLLVAVGFSFTQVMFHAGET | 6.46
MKRIRIPMTLALGAALTIAPLSFRSAEEN | 7.87
MKRLLVSLRVWMVFLMNWVTPDRKTRAAAVY | 6.54
MKKRLIGFLVLVPALIMSGITLIEANKK | 5.85 and 6.63 and 6.16
MRKKRVITCVMAASLTLGSLLPAGYASAASD | 1.13

Sequence | AmyQ secretion efficiency
MTKLKMLSMLTVMIASLFIFSSQQLAVQY | 6.53
MKKSRRALLLLLFAFEPSASGKKL | 7.28
MKWMCSICCAAVLLAGGAAQSEAV | 4.64
MKKKQVMLALTAAAGLGLTALHSAPAIKAAPL | 4.18
MKRLLSTLLIGIMLLTFAPSCFAKQD | 3.09
MKKRLIAPMLLSAASLAFFAMSGSGAQAAAY | 3.78
MNKPTKLFSTLALAAGMTDEEEEEAGTIHAQQP | 7.16
MKKAKKKKLSLGLVFGFSYGAGHVAEAKTK | 7.52
MKRLLVSLRVWMVFLMNWVTPDRKTAAYAVY | 7.68
MRPVFPLILSAVLFLSCFFGARQTEISASKR | 2.64
MTKKAWFLPLVCVLLISGWLAPAASLSAQTT | 3.89
MLCVMMLLFSAIASFPVSCQAKDQ | 5.97
MKLSVKFLFIAGVLTVAAAAMTAKMYATAKGN | 4.51
MFQFAITLSVLCALILLVPTLLVIPFQHNKEAGASV | 6.31
MRSKKLWISLLFALTLIFTMAFSNMSDQAAGK | 2.84
MKKAFILSAAAAVGLFTFGGVQQVSAKEL | 3.11
MKKTLAAGIIGLLTVSIASPSFAAEK | 2.62
MKSKGSIMACLILFSFTITTFINTETISRFSN | 8.63
MKTKTGFIFSAILTLSIFAPNETFAQTA | 1.63
MKKWIYVVLVLSIAGIGGFSVHYASS | 8.11
MKKCLLFLTTIALILSLSTTAFAKNT | 1.16
MRKKRVITCVMAASLTLGSLLPAGYCTAKED | 3.9
MRMLWRSLALCGLALTLAFLSVSLFFVPCAQAAEP | 1.41
MPYLKRVLLLLVTGLFMSLFAVTATASTQTG | 1.44
MLKKKWMVGLLAGCLAAGGFSYNQFATEN | 6.91
MKVLLSALLLLLFAFGPSASGKKL | 5.45

Sequence | AmyQ secretion efficiency
MKKAFILSAAAAVGLFTFIAVSVASAKEL | 3.67
MLCVMMLLFSAIASFPVSRQAKDQ | 7.53
MRKKIKVLTMCFLGLILFVPTALADNS | 1.88
MKKCKRKKKKIALILSLSTNAFAKNT | 6.9
MKLKSKLLLSCLALSTVFVATTIWNAPTH | 6.19
MFKKLLLATSALTFSLSLVLKLRGHAKAQEV | 6.07
MKSKGSIMACKKKKSFTITTFINTETISAFSN | 7.29
MKLKKRVSMYTQALTMCGGLFVTPAKAVKT | 5.95
MRSYIKVLTMCFLGLILFVPTVLADNS | 2.19
MIFTIVVGFLSVLGLAAVFPLTAQAEKA | 2.34
MRNLTKTSLLLAGLCTAAQMVFVTHASAADE | 2.81
MKLSVKIAGVLTVAAAAMTAKMYATGKGN | 6.84
MLCVMMLLFSAIASTPVSAQAKDQ | 5.3
MFFVLMAFIICLSLILSVLAAPPSGAKAESV | 5.38
MGSGTIWTIILGALLVCCIAVAYTLTKSQAGASSS | 7.61
MRKTIFAFLTGLMMFGTITAPSASPD | 5.98
MMSSISIFITCLLITLLTMGGMIASPASAAGT | 2.44
MKKVKRAFIICLSLILSVLAAPPSGAKAESV | 1.67
MTKKAWFLPLVCVLLISGWLAPAASASRQTT | 1.94
MKKWLIIAVSLAIAIVLFMYTKGEAKAAGK | 2.87
MPIKKKVMMCLAVTLVFGSMSFPTLTNSGGFSG | 3.08
MIAYFGKCLLLVTIMFLGVLFGMHQANHG | 6.41
MSRITINIITMFIAAAVISLTGTAEAAEK | 2.45
MKRFSTAYLLLGILCSAAVFLIGAPSRALCAEV | 3.3
MNFKKTVVSALSISALALEEEDEDASAHEI | 6.1
MKKWTNMSLLIIAVSLAIAIVLFMYTKGEAKAAGM | 2.33

Sequence | AmyQ secretion efficiency
MLTKRLLTIYIMLLGLIAWFPGAAQAAKK | 4.2
MKKWMITIAMLILAGIALFVFISPLKGHKT | 6.29
MGSTSFILWISLLFALTLIFTMAFSNMSAQAAGK | 6.79
MKTLRTLCVLMILSGVIFFGLKCDAKDI | 4.31
MLCVMMLLFSSFPVSAQAKDQ | 5.51
MKKAFILSAAAAVGLFTFGGVQQSSAKEL | 4.21
MRNLTKTSLLLAGLCTAAQMVFVTHASAASK | 1.6
MKKRKRRNFKRFIAAFLVLALMISLVPADVLAKRK | 3.6
MHLIRAAGAVCLAVVLIAGCRFNEDQHQAEGENT | 5.94 and 6.42
MRPVFPLILSAVLFLSCFFGARQTEFSASKR | 7.3
MNFKKTVVSALSISALALSVSGVASARRK | 6.94
MTKRGIQAFAGGIILATAVLAAVFKKTKKDQAAAV | 7.92
MKKKIRRRKAVSAVVGSSMAAAPAEAKTI | 5.54
MRSKKLWISLLFALTLIFTMAFSNMSAQWAGK | 6.53
MKKAAAVLLSLGGFSYGAGHVAEAKTK | 6.38
MLKRTSFVSSLFIFMAVLLIILTLPSGQAHAQSA | 1.9
MLGIRLLTIYIMLLGLIAWFPGAAQAEEK | 2.38
MPIKKKVMMCKRVTLVFGSMSFPTLTNSGGFKE | 6.57
MKKLTLAFLVFLSVVLVTTVFLVKQQESVAQAKQL | 3.11
MKRQSQTLSFLSIIVAYPIQTNASPM | 8.43
MKKLLSAASLAFFAMSGSAQAAAY | 2.96
MKKWMAGLFLAAAVLLCLMVPQQIQGDED | 8.35
MKNMSCKLVVSVTLFFSFLTIGPLVHAQNS | 1.05
MNKFLKSNFRFKRAAALGISLLASSNFIKASND | 3.29
MTKKAWFLPLVCVLLISGWLAPAASASVQTT | 2.48
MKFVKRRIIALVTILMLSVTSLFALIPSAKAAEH | 2.54

Sequence | AmyQ secretion efficiency
MRKSLITLGLASVIGTSSFLIPFTSKTLSAETL | 4.7
MRPVFPLILSAVLFLSCFDDDDDTEASASKR | 4.17
MRSYIKVLTMCFLGLILFVPTTVVALADNS | 2.15
MSGTCSIVCLWILVLLLSCLSGKSAYAATS | 3.6
MLKKKWMVGLLAGCLAAGGFSYNAFLTEN | 6.4
MFGWMAGLFLAAAVLLCLMVPQQIQGASS | 4.3
MAIIIAIIAAVIVIAALINVRNASPG | 8.6
MMKKGLLAGALTATVLFGTCKDAEAASQ | 1.66
MKRMIVRMTLPLLIVCLAFSSFSASARAEEE | 3.68
MLKKIALTLCPAIVAPASAHVS | 6.21
MKRLTLVCSIVFILEDLFYDLDIGTIPIQDLPVYEASAKTA | 7.06
MGSGTSMLFSTLALAAGMTAAAAGGAGTIHAQQP | 2.01
MAIIIAIIAAVIVIAALITFNVENASPG | 8.68
MKRMIVRMTTPLLIVCLAFSSFSASARAASE | 2.03
MKSKGSIMACLILFSFTITTFINTETISLFSN | 7.29
MSGSTLIILALFVLSLGLLSFMVTPVSAASK | 4.39
MKRKLLSSLAISALSLGLLVSAPTASFAATR | 2.21
MHLIRQSQGYCQYTVLIAGCRFNEDQHQAEGENT | 6.47
MNFKKTVVSALSISALALSVSGVASAHSD | 2.93
MKKWMITIAMLILAGIALFVFIDPLKSHKT | 6.61
MKRKLKKSLAISALSLGLLVSAPTASFAAES | 3.49
MKVLLSALLLLLFAFEPSASCKKL | 4.65
